Experimental data published in paper PMC7885793 (Biochemistry, 2019).

Experiments:
[1] = molecular target: T1, PLCβ3 ΔXY2 (Homo sapiens, UniProt Q01970 10-1234, ΔXY2 (residues 471–584)); assay: cell-based or functional assay
T1 sequence (looked up): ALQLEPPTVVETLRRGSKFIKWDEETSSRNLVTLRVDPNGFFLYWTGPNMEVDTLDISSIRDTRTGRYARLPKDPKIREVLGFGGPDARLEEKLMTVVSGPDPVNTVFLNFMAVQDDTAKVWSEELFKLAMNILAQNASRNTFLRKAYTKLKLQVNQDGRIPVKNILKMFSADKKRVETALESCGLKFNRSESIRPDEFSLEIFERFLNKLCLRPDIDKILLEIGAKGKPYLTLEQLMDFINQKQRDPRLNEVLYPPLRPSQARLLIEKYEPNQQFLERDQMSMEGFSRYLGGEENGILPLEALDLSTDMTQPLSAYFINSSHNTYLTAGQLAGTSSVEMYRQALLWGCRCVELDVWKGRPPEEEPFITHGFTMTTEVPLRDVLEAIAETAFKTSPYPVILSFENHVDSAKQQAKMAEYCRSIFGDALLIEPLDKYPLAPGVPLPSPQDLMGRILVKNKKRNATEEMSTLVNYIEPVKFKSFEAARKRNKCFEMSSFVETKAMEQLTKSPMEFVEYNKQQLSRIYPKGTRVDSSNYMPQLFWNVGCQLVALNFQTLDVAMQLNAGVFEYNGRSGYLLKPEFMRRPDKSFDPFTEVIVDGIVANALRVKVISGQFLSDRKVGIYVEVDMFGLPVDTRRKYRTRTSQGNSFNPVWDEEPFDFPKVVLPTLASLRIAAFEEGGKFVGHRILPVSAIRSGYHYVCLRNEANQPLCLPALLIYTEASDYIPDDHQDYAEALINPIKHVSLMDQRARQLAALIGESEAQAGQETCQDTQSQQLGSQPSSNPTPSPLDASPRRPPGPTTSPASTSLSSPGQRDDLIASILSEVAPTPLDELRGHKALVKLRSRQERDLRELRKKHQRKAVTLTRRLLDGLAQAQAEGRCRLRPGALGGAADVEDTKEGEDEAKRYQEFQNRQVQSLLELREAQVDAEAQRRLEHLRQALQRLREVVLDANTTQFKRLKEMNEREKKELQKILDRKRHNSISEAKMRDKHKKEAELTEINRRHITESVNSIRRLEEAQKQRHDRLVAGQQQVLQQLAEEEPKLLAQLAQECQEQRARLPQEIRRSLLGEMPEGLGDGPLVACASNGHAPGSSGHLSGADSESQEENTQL

[2] = molecular target: T2, Homo sapiens PLCβ3 (residues 10–1234) (Homo sapiens, UniProt Q01970 10-1234); assay: cell-based or functional assay
T2 sequence (looked up): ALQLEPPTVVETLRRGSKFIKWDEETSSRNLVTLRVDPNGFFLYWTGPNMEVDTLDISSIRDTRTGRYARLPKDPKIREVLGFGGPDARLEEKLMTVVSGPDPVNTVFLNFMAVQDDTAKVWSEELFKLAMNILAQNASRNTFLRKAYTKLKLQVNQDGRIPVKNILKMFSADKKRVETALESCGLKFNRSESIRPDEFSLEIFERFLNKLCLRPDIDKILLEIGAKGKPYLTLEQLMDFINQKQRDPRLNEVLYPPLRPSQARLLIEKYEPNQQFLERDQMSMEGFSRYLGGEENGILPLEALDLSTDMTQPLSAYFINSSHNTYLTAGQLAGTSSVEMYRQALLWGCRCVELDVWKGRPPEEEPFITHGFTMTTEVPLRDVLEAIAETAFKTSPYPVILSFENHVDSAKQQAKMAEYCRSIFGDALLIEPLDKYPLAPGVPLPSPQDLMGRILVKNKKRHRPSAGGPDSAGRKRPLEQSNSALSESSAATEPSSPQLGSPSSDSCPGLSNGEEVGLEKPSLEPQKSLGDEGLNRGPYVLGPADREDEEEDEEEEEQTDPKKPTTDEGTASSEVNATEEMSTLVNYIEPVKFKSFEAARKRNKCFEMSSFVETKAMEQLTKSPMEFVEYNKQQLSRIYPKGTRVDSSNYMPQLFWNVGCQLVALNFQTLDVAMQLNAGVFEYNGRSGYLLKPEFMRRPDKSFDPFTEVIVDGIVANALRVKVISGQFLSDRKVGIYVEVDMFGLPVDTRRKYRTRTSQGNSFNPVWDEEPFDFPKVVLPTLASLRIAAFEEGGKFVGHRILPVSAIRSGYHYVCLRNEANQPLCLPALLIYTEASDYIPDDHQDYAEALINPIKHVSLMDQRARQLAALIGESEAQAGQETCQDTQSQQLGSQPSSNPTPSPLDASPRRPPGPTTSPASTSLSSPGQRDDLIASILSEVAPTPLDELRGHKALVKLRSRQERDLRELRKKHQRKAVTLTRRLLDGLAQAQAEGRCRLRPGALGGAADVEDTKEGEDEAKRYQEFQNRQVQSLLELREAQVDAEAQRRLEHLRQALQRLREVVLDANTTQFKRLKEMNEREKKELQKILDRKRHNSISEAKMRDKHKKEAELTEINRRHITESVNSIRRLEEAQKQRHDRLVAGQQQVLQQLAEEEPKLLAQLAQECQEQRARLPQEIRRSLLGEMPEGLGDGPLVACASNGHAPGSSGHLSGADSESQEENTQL

B1: Activated Gαq (Gαq·GDP-ALF4^−) (natural protein, murine, UniProt P21279 7-359, looked up)
chain: MACCLSEEAKEARRINDEIERQLRRDKRDARRELKLLLLGTGESGKSTFIKQMRIIHGSGYSDEDKRGFTKLVYQNIFTAMQAMIRAMDTLKIPYKYEHNKAHAQLVREVDVEKVSAFENPYVDAIKSLWNDPGIQECYDRRREYQLSDSTKYYLNDLDRVADPSYLPTQQDVLRVRVPTTGIIEYPFDLQSVIFRMVDVGGQRSERRKWIHCFENVTSIMFLVALSEYDQVLVESDNENRMEESKALFRTIITYPWFQNSSVILFLNKKDLLEEKIMYSHLVDYFPEYDGPQRDAQAAREFILKMFVDLNPDSDKIIYSHFTCATDTENIRFVFAAVKDTILQLNLKEYNLV
Question: What does the source list for B1?
Answer: x-fold maximum activity over basal (complex against the PLCβ3 variant alone) [1]: 2 x-fold; x-fold maximum activity over basal (complex against the PLCβ3 variant alone) [2]: 8 x-fold
